From US20170304412A1 (YEDA RESEARCH AND DEVELOPMENT, published 2017)
Changes are numbered by the printed parent chain.

T1: MMP7 catalytic domain (UniProt P09237 95-267)
T1 sequence (looked up): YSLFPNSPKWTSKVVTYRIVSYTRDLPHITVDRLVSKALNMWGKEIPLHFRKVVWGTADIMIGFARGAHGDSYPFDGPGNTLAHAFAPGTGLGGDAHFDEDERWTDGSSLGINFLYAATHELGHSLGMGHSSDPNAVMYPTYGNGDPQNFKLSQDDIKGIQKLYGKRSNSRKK

T2: TACE pro-domain R58A mutant
T2 chain: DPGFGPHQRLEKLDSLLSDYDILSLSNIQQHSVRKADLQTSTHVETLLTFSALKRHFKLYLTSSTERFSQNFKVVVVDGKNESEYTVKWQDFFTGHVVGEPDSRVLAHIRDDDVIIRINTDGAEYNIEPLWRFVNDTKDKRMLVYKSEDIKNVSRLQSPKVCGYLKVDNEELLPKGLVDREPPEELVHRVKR

T3: TACE pro-domain (wild type)
T3 chain: T2 chain with A36R

B1: TACE pro-domain (wild type) (other)
chain: T2 chain with A36R
B2: Furin (protein)
chain: DVYQEPTDPKFPQQWYLSGVTQRDLNVKAAWAQGYTGHGIVVSILDDGIEKNHPDLAGNYDPGASFDVNDQDPDPQPRYTQMNDNRHGTRCAGEVAAVANNGVCGVGVAYNARIGGVRMLDGEVTDAVEARSLGLNPNHIHIYSASWGPEDDGKTVDGPARLAEEAFFRGVSQGRGGLGSIFVWASGNGGREHDSCNCDGYTNSIYTLSISSATQFGNVPWYSEACSSTLATTYSSGNQNEKQIVTTDLRQKCTESHTGTSASAPLAAGIIALTLEANKNLTWRDMQHLVVQTSKPAHLNANDWATNGVGRKVSHSYGYGLLDAGAMVALAQNWTTVAPQRKCIIDILTEPKDIGKRLEVRKTVTACLGEPNHITRLEHAQARLTLSYNRRGDLAIHLVSPMGTRSTLLAARPHDYSADGFNDWAFMTTHSWDEDPSGEWVLEIENTSEANNYGTLTKFTLVLYGTA

Assays:
TACE catalytic domain = TACE catalytic domain (UniProt P78536 215-477, limits assumed); test: cell-based or functional assay
MMP7 catalytic domain = target: T1, MMP7 catalytic domain; test: cell-based or functional assay
MMP9 catalytic domain = MMP9 catalytic domain (UniProt P14780 107-444, limits assumed); test: cell-based or functional assay
[1] = target: T2, TACE pro-domain R58A mutant
[2] = target: T3, TACE pro-domain (wild type)

Sequence of TACE catalytic domain (P78536 215-477 limits assumed): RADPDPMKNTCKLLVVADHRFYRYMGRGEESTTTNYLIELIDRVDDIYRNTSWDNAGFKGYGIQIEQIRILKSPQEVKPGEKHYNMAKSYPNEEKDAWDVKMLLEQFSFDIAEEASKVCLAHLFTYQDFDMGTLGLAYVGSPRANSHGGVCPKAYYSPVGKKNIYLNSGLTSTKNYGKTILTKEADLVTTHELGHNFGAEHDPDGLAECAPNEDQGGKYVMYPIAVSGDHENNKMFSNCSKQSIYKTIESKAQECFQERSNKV
Sequence of MMP9 catalytic domain (P14780 107-444 limits assumed): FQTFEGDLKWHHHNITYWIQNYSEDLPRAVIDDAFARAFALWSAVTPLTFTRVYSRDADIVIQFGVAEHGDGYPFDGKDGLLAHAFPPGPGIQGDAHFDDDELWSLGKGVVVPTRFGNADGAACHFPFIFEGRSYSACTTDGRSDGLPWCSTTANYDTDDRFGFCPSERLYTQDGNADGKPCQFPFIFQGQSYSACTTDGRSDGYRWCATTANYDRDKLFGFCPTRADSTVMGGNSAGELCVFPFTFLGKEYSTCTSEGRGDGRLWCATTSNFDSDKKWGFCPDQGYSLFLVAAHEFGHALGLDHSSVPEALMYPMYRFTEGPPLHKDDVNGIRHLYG

Row | Molecule | IC50, proteolytic activity of TACE (TACE catalytic domain) | IC50, catalytic activity on fluorogenic peptide (MMP7 catalytic domain) | IC50 relative to the IC50 towards TACE (MMP7 catalytic domain) | IC50, catalytic activity on fluorogenic peptide (TACE catalytic domain) | IC50, catalytic activity on fluorogenic peptide (MMP9 catalytic domain) | IC50 relative to the IC50 towards TACE (MMP9 catalytic domain) | cleavage by Furin (SDS-PAGE) [1] | cleavage by Furin (SDS-PAGE) [2]
1 | TACE pro-domain R58A mutant (from UniProt P78536 23-214) | 55 nM |  |  |  |  |  |  | 
2 | B1 | 23 nM | 8790 nM | 80 fold | 119 nM | 4480 nM | 40 fold |  | 
3 | B2 |  |  |  |  |  |  | pro-R58A mutant was not cleaved by Furin | Only pro-WT was processed by Furin generating a smaller fragment of ˜17kDa
